According to patent publication US20200165325A1:

Columns and labels:
[1] = molecular target: Env (gp120) of HIV-1 strain T251-18 (HIV-1)
[2] = molecular target: Env (gp120) of HIV-1 strain 0330.v4.c3 (HIV-1)
[3] = molecular target: Env (gp120) of HIV-1 strain WITO4160.33 (HIV-1)
[4] = molecular target: Env (gp120) of HIV-1 strain R2184.c04 (HIV-1)
[5] = molecular target: Env (gp120) of HIV-1 strain ZM53M.PB12 (HIV-1)
[6] = molecular target: Env (gp120) of HIV-1 strain Q769.d22 (HIV-1)
[7] = molecular target: Env (gp120) of HIV-1 strain C3347.c11 (HIV-1)
[8] = molecular target: Env (gp120) of HIV-1 strain T255-34 (HIV-1)
[9] = molecular target: Env (gp120) of HIV-1 strain P0402_c2_11 (HIV-1)
[10] = molecular target: Env (gp120) of HIV-1 strain HIV-16845-2.22 (HIV-1)
[11] = molecular target: Env (gp120) of HIV-1 strain TRO.11 (HIV-1)
[12] = molecular target: Env (gp120) of HIV-1 strain 1054_07_TC4_1499 (HIV-1)
[13] = molecular target: Env (gp120) of HIV-1 strain 62357_14_D3_4589 (HIV-1)
[14] = molecular target: Env (gp120) of HIV-1 strain R1166.c01 (HIV-1)
[15] = molecular target: Env (gp120) of HIV-1 strain T250-4 (HIV-1)
[16] = molecular target: Env (gp120) of HIV-1 strain X1193_c1 (HIV-1)
[17] = molecular target: Env (gp120) of HIV-1 strain PVO.4 (HIV-1)
[18] = molecular target: Env (gp120) of HIV-1 strain T278-50 (HIV-1)
[19] = molecular target: Env (gp120) of HIV-1 strain Ce2010_F5 (HIV-1)
[20] = molecular target: Env (gp120) of HIV-1 strain QH0692.42 (HIV-1)
[21] = molecular target: Env (gp120) of HIV-1 strain Q23.17 (HIV-1)
[22] = molecular target: Env (gp120) of HIV-1 strain Ce0393_C3 (HIV-1)
[23] = molecular target: Env (gp120) of HIV-1 strain 6535.3 (HIV-1)
[24] = molecular target: Env (gp120) of HIV-1 strain CNE30 (HIV-1)
[25] = molecular target: Env (gp120) of HIV-1 strain THRO4156.18 (HIV-1)
[26] = molecular target: Env (gp120) of HIV-1 strain Q461.e2 (HIV-1)
[27] = molecular target: Env (gp120) of HIV-1 strain ZM247v1(Rev-) (HIV-1)
[28] = molecular target: Env (gp120) of HIV-1 strain 3016.v5.c45 (HIV-1)
[29] = molecular target: Env (gp120) of HIV-1 strain C2101.c01 (HIV-1)
[30] = molecular target: Env (gp120) of HIV-1 strain Du156.12 (HIV-1)
[31] = molecular target: Env (gp120) of HIV-1 strain 0815.v3.c3 (HIV-1)
[32] = molecular target: Env (gp120) of HIV-1 strain TRJO4551.58 (HIV-1)
[33] = molecular target: Env (gp120) of HIV-1 strain 231965.c01 (HIV-1)
[34] = molecular target: Env (gp120) of HIV-1 strain 6540.v4.c1 (HIV-1)
[35] = molecular target: Env (gp120) of HIV-1 strain C1080.c03 (HIV-1)
[36] = molecular target: Env (gp120) of HIV-1 strain 1006_11_C3_1601 (HIV-1)
[37] = molecular target: Env (gp120) of HIV-1 strain 3817.v2.c59 (HIV-1)
[38] = molecular target: Env (gp120) of HIV-1 strain CAAN5342.A2 (HIV-1)
[39] = molecular target: Env (gp120) of HIV-1 strain CNE20 (HIV-1)
[40] = molecular target: Env (gp120) of HIV-1 strain 89-F1_2_25 (HIV-1)
[41] = molecular target: Env (gp120) of HIV-1 strain ZM135M.PL10a (HIV-1)
[42] = molecular target: Env (gp120) of HIV-1 strain 3718.v3.c11 (HIV-1)
[43] = molecular target: Env (gp120) of HIV-1 strain RHPA4259.7 (HIV-1)
[44] = molecular target: Env (gp120) of HIV-1 strain 6811.v7.c18 (HIV-1)
[45] = molecular target: Env (gp120) of HIV-1 strain ZM249M.PL1 (HIV-1)
[46] = molecular target: Env (gp120) of HIV-1 strain 211-9 (HIV-1)
[47] = molecular target: Env (gp120) of HIV-1 strain Q842.d12 (HIV-1)
[48] = molecular target: Env (gp120) of HIV-1 strain ZM214M.PL15 (HIV-1)
[49] = molecular target: Env (gp120) of HIV-1 strain AC10.0.29 (HIV-1)
[50] = molecular target: Env (gp120) of HIV-1 strain 6545.v4.c1 (HIV-1)

NIH45-46 IgG (antibody)
neutralization IC50 [1]: 1.35 µg/mL | neutralization IC50 [2]: 0.09 µg/mL | neutralization IC50 [3]: 0.06 µg/mL | neutralization IC50 [4]: 0.034 µg/mL | neutralization IC50 [5]: 0.175 µg/mL | neutralization IC50 [6]: 9 ng/mL | neutralization IC50 [7]: 0.029 µg/mL | neutralization IC50 [8]: 0.71 µg/mL | neutralization IC50 [9]: 0.073 µg/mL | neutralization IC50 [10]: 5 µg/mL | neutralization IC50 [11]: 1.61 µg/mL | neutralization IC50 [12]: 0.113 µg/mL | neutralization IC50 [13]: 0.06 µg/mL | neutralization IC50 [14]: 0.31 µg/mL | neutralization IC50 [15]: > 50 µg/mL | neutralization IC50 [16]: 0.021 µg/mL | neutralization IC50 [17]: 0.12 µg/mL | neutralization IC50 [18]: > 50 µg/mL | neutralization IC50 [19]: 0.101 µg/mL | neutralization IC50 [20]: 0.72 µg/mL | neutralization IC50 [21]: 0.14 µg/mL | neutralization IC50 [22]: 0.334 µg/mL | neutralization IC50 [23]: 0.23 µg/mL | neutralization IC50 [24]: 0.309 µg/mL | neutralization IC50 [25]: 1.91 µg/mL | neutralization IC50 [26]: 0.076 µg/mL | neutralization IC50 [27]: 2.94 µg/mL | neutralization IC50 [28]: > 50 µg/mL | neutralization IC50 [29]: 4.24 µg/mL | neutralization IC50 [30]: 0.02 µg/mL | neutralization IC50 [31]: 0.014 µg/mL | neutralization IC50 [32]: 0.04 µg/mL | neutralization IC50 [33]: 0.051 µg/mL | neutralization IC50 [34]: > 50 µg/mL | neutralization IC50 [35]: 2.48 µg/mL | neutralization IC50 [36]: 0.027 µg/mL | neutralization IC50 [37]: > 50 µg/mL | neutralization IC50 [38]: 0.15 µg/mL | neutralization IC50 [39]: 7.83 µg/mL | neutralization IC50 [40]: > 50 µg/mL | neutralization IC50 [41]: 0.59 µg/mL | neutralization IC50 [42]: 19.6 µg/mL | neutralization IC50 [43]: 0.017 µg/mL | neutralization IC50 [44]: 0.035 µg/mL | neutralization IC50 [45]: 0.017 µg/mL | neutralization IC50 [46]: > 50 µg/mL | neutralization IC50 [47]: 0.031 µg/mL | neutralization IC50 [48]: 0.17 µg/mL | neutralization IC50 [49]: 0.56 µg/mL | neutralization IC50 [50]: > 50 µg/mL

NIH45-46^G54F IgG (antibody)
neutralization IC50 [1]: 0.41 µg/mL | neutralization IC50 [2]: 0.04 µg/mL | neutralization IC50 [3]: 0.02 µg/mL | neutralization IC50 [4]: 0.015 µg/mL | neutralization IC50 [5]: 0.08 µg/mL | neutralization IC50 [6]: 5 ng/mL | neutralization IC50 [7]: 0.015 µg/mL | neutralization IC50 [8]: 0.03 µg/mL | neutralization IC50 [9]: 0.008 µg/mL | neutralization IC50 [10]: 0.59 µg/mL | neutralization IC50 [11]: 0.11 µg/mL | neutralization IC50 [12]: 0.076 µg/mL | neutralization IC50 [13]: 0.04 µg/mL | neutralization IC50 [14]: 0.4 µg/mL | neutralization IC50 [15]: > 50 µg/mL | neutralization IC50 [16]: < 0.001 µg/mL | neutralization IC50 [17]: 0.07 µg/mL | neutralization IC50 [18]: > 50 µg/mL | neutralization IC50 [19]: 0.046 µg/mL | neutralization IC50 [20]: 0.56 µg/mL | neutralization IC50 [21]: 0.03 µg/mL | neutralization IC50 [22]: 0.04 µg/mL | neutralization IC50 [23]: 0.07 µg/mL | neutralization IC50 [24]: 0.1 µg/mL | neutralization IC50 [25]: 0.89 µg/mL | neutralization IC50 [26]: 0.03 µg/mL | neutralization IC50 [27]: 0.28 µg/mL | neutralization IC50 [28]: 5.82 µg/mL | neutralization IC50 [29]: 0.11 µg/mL | neutralization IC50 [30]: < 0.001 µg/mL | neutralization IC50 [31]: < 0.001 µg/mL | neutralization IC50 [32]: 0.03 µg/mL | neutralization IC50 [33]: 0.022 µg/mL | neutralization IC50 [34]: > 50 µg/mL | neutralization IC50 [35]: 0.36 µg/mL | neutralization IC50 [36]: 0.003 µg/mL | neutralization IC50 [37]: > 50 µg/mL | neutralization IC50 [38]: 0.1 µg/mL | neutralization IC50 [39]: 0.53 µg/mL | neutralization IC50 [40]: > 50 µg/mL | neutralization IC50 [41]: 0.13 µg/mL | neutralization IC50 [42]: 0.32 µg/mL | neutralization IC50 [43]: 0.005 µg/mL | neutralization IC50 [44]: 0.017 µg/mL | neutralization IC50 [45]: 0.004 µg/mL | neutralization IC50 [46]: > 50 µg/mL | neutralization IC50 [47]: 0.011 µg/mL | neutralization IC50 [48]: 0.09 µg/mL | neutralization IC50 [49]: 0.24 µg/mL | neutralization IC50 [50]: > 50 µg/mL
